Test results: FireProtDB (doi:10.1002/pro.5560060315)

Details: Saccharomyces cerevisiae (strain ATCC 204508 / S288c), CD
[1] = pH 3, Thermal, acetate 0.1 M, reversible: yes, structure 1YCC
[2] = pH 3.25, Thermal, acetate 0.1 M, reversible: yes, structure 1YCC
[3] = pH 3.5, Thermal, acetate 0.1 M, reversible: yes, structure 1YCC
[4] = pH 3.75, Thermal, acetate 0.1 M, reversible: yes, structure 1YCC
[5] = pH 4, Thermal, acetate 0.1 M, reversible: yes, structure 1YCC
[6] = pH 4.25, Thermal, acetate 0.1 M, reversible: yes, structure 1YCC
[7] = pH 4.5, Thermal, acetate 0.1 M, reversible: yes, structure 1YCC
[8] = pH 4.75, Thermal, acetate 0.1 M, reversible: yes, structure 1YCC
[9] = pH 5, Thermal, acetate 0.1 M, reversible: yes, structure 1YCC
[10] = pH 7.5, 25 °C, GdnHCl, Tris-HCl 20 mM, NaCl 40 mM, reversible: yes, structure 1YCC
[11] = pH 4.5, 25 °C, Thermal, acetate 0.1 M, reversible: yes, structure 1YCC
[12] = pH 3, Thermal, acetate 0.1 M, reversible: yes (50-75%)
[13] = pH 3.25, Thermal, acetate 0.1 M, reversible: yes (50-75%)
[14] = pH 3.5, Thermal, acetate 0.1 M, reversible: yes
[15] = pH 3.75, Thermal, acetate 0.1 M, reversible: yes
[16] = pH 4, Thermal, acetate 0.1 M, reversible: yes
[17] = pH 4.25, Thermal, acetate 0.1 M, reversible: yes
[18] = pH 4.5, 25 °C, Thermal, acetate 0.1 M, reversible: yes
[19] = pH 4.5, Thermal, acetate 0.1 M, reversible: yes
[20] = pH 4.75, Thermal, acetate 0.1 M, reversible: yes
[21] = pH 5, Thermal, acetate 0.1 M, reversible: yes
[22] = pH 7.5, 25 °C, GdnHCl, Tris-HCl 20 mM, NaCl 40 mM, reversible: yes
[23] = pH 3, Thermal, acetate 0.1 M, reversible: yes (50-75%), structure 1YCC
[24] = pH 5.25, Thermal, acetate 0.1 M, reversible: yes, structure 1YCC

Cytochrome c isoform 1 K79I, P00044, sequence (P00044 whole entry K79I, canonical isoform): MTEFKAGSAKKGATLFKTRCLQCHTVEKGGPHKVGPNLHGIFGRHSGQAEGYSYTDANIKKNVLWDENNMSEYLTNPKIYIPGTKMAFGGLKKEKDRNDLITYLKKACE
Cytochrome c isoform 1 K79V, P00044, sequence (P00044 whole entry K79V, canonical isoform): as the sequence (P00044 whole entry K79I, canonical isoform) above, with I79V counted along it
Cytochrome c isoform 1 wild type, P00044, sequence (P00044 whole entry, canonical isoform): as the sequence (P00044 whole entry K79I, canonical isoform) above, with I79K counted along it

Cytochrome c isoform 1 K79I, P00044
Tm [1]: 22.3 °C | change of melting temperature, mutant - wild type (higher = more stable) [1]: 0.8 °C | unfolding enthalpy (van 't Hoff) [1]: 33 kcal/mol | Tm [2]: 26.7 °C | change of melting temperature, mutant - wild type (higher = more stable) [2]: 4.1 °C | unfolding enthalpy (van 't Hoff) [2]: 40.8 kcal/mol | Tm [3]: 31.7 °C | change of melting temperature, mutant - wild type (higher = more stable) [3]: 1 °C | unfolding enthalpy (van 't Hoff) [3]: 51.4 kcal/mol | Tm [4]: 35.5 °C | change of melting temperature, mutant - wild type (higher = more stable) [4]: 0.6 °C | unfolding enthalpy (van 't Hoff) [4]: 57.7 kcal/mol | Tm [5]: 38.7 °C | change of melting temperature, mutant - wild type (higher = more stable) [5]: -2 °C | unfolding enthalpy (van 't Hoff) [5]: 61.1 kcal/mol | Tm [6]: 41.3 °C | change of melting temperature, mutant - wild type (higher = more stable) [6]: -1.8 °C | unfolding enthalpy (van 't Hoff) [6]: 67.4 kcal/mol | Tm [7]: 45.2 °C | change of melting temperature, mutant - wild type (higher = more stable) [7]: 0.2 °C | unfolding enthalpy (van 't Hoff) [7]: 69.1 kcal/mol | Tm [8]: 46.9 °C | change of melting temperature, mutant - wild type (higher = more stable) [8]: -1.7 °C | unfolding enthalpy (van 't Hoff) [8]: 73.8 kcal/mol | Tm [9]: 47.7 °C | change of melting temperature, mutant - wild type (higher = more stable) [9]: -5 °C | unfolding enthalpy (van 't Hoff) [9]: 77.4 kcal/mol | ddG of mutation (higher = less stable) [10]: 1.19 kcal/mol | denaturant m value [10]: 4.29 kcal/mol/M | unfolding free energy [10]: 4.47 kcal/mol

Cytochrome c isoform 1 K79V, P00044
Tm [1]: 22.7 °C | change of melting temperature, mutant - wild type (higher = more stable) [1]: 1.2 °C | unfolding enthalpy (van 't Hoff) [1]: 37 kcal/mol | Tm [2]: 28.7 °C | change of melting temperature, mutant - wild type (higher = more stable) [2]: 6.1 °C | unfolding enthalpy (van 't Hoff) [2]: 46.3 kcal/mol | Tm [3]: 31.4 °C | change of melting temperature, mutant - wild type (higher = more stable) [3]: 0.7 °C | unfolding enthalpy (van 't Hoff) [3]: 47.3 kcal/mol | Tm [4]: 36.6 °C | change of melting temperature, mutant - wild type (higher = more stable) [4]: 1.7 °C | unfolding enthalpy (van 't Hoff) [4]: 58.5 kcal/mol | Tm [5]: 38.9 °C | change of melting temperature, mutant - wild type (higher = more stable) [5]: -1.8 °C | unfolding enthalpy (van 't Hoff) [5]: 60.2 kcal/mol | Tm [6]: 42.9 °C | change of melting temperature, mutant - wild type (higher = more stable) [6]: -0.2 °C | unfolding enthalpy (van 't Hoff) [6]: 64.8 kcal/mol | ddG of mutation (higher = less stable) [11]: -0.1 kcal/mol | heat capacity change of unfolding [11]: 1.5 kcal/mol/K | unfolding enthalpy (van 't Hoff) [11]: 40 kcal/mol | unfolding free energy [11]: 3.8 kcal/mol | Tm [7]: 46.7 °C | change of melting temperature, mutant - wild type (higher = more stable) [7]: 1.7 °C | unfolding enthalpy (van 't Hoff) [7]: 72.5 kcal/mol | Tm [9]: 49.5 °C | change of melting temperature, mutant - wild type (higher = more stable) [9]: -3.2 °C | unfolding enthalpy (van 't Hoff) [9]: 75.5 kcal/mol | ddG of mutation (higher = less stable) [10]: 1.38 kcal/mol | denaturant m value [10]: 4.01 kcal/mol/M | unfolding free energy [10]: 4.28 kcal/mol

Cytochrome c isoform 1 wild type, P00044
Tm [12]: 21.5 °C | unfolding enthalpy (van 't Hoff) [12]: 39.6 kcal/mol | Tm [13]: 22.6 °C | unfolding enthalpy (van 't Hoff) [13]: 42 kcal/mol | Tm [14]: 30.7 °C | unfolding enthalpy (van 't Hoff) [14]: 54.2 kcal/mol | Tm [15]: 34.9 °C | unfolding enthalpy (van 't Hoff) [15]: 62.3 kcal/mol | Tm [16]: 40.7 °C | unfolding enthalpy (van 't Hoff) [16]: 69.8 kcal/mol | Tm [17]: 43.1 °C | unfolding enthalpy (van 't Hoff) [17]: 73.7 kcal/mol | heat capacity change of unfolding [18]: 1.4 kcal/mol/K | unfolding enthalpy (van 't Hoff) [18]: 45.4 kcal/mol | unfolding free energy [18]: 3.7 kcal/mol | Tm [19]: 45 °C | unfolding enthalpy (van 't Hoff) [19]: 73.4 kcal/mol | Tm [20]: 48.6 °C | unfolding enthalpy (van 't Hoff) [20]: 79.6 kcal/mol | Tm [21]: 52.7 °C | unfolding enthalpy (van 't Hoff) [21]: 81.9 kcal/mol | denaturant m value [22]: 4.87 kcal/mol/M | unfolding free energy [22]: 5.66 kcal/mol

Cytochrome c isoform 1 K79W, P00044
Tm [23]: 22.8 °C | change of melting temperature, mutant - wild type (higher = more stable) [23]: 1.3 °C | unfolding enthalpy (van 't Hoff) [23]: 43.5 kcal/mol | Tm [2]: 22.8 °C | change of melting temperature, mutant - wild type (higher = more stable) [2]: 0.2 °C | unfolding enthalpy (van 't Hoff) [2]: 49.8 kcal/mol | Tm [3]: 27.5 °C | change of melting temperature, mutant - wild type (higher = more stable) [3]: -3.2 °C | unfolding enthalpy (van 't Hoff) [3]: 50.5 kcal/mol | Tm [4]: 29.2 °C | change of melting temperature, mutant - wild type (higher = more stable) [4]: -5.7 °C | unfolding enthalpy (van 't Hoff) [4]: 58.6 kcal/mol | Tm [6]: 31.5 °C | change of melting temperature, mutant - wild type (higher = more stable) [6]: -11.6 °C | unfolding enthalpy (van 't Hoff) [6]: 68.5 kcal/mol | ddG of mutation (higher = less stable) [11]: 1.6 kcal/mol | heat capacity change of unfolding [11]: 1.15 kcal/mol/K | unfolding enthalpy (van 't Hoff) [11]: 51.4 kcal/mol | unfolding free energy [11]: 2.1 kcal/mol | Tm [7]: 36.1 °C | change of melting temperature, mutant - wild type (higher = more stable) [7]: -8.9 °C | unfolding enthalpy (van 't Hoff) [7]: 64.2 kcal/mol | Tm [8]: 39 °C | change of melting temperature, mutant - wild type (higher = more stable) [8]: -9.6 °C | unfolding enthalpy (van 't Hoff) [8]: 71.4 kcal/mol | Tm [9]: 47.6 °C | change of melting temperature, mutant - wild type (higher = more stable) [9]: -5.1 °C | unfolding enthalpy (van 't Hoff) [9]: 78 kcal/mol | Tm [24]: 49.3 °C | unfolding enthalpy (van 't Hoff) [24]: 76.5 kcal/mol | ddG of mutation (higher = less stable) [10]: 1.43 kcal/mol | denaturant m value [10]: 4.16 kcal/mol/M | unfolding free energy [10]: 4.23 kcal/mol
